Experimental data taken from IntAct's records for PubMed 29995851.

B1: Protein patched homolog 1 (Homo sapiens), Q13635-1 (parent)
chain: MASAGNAAEPQDRGGGGSGCIGAPGRPAGGGRRRRTGGLRRAAAPDRDYLHRPSYCDAAFALEQISKGKATGRKAPLWLRAKFQRLLFKLGCYIQKNCGKFLVVGLLIFGAFAVGLKAANLETNVEELWVEVGGRVSRELNYTRQKIGEEAMFNPQLMIQTPKEEGANVLTTEALLQHLDSALQASRVHVYMYNRQWKLEHLCYKSGELITETGYMDQIIEYLYPCLIITPLDCFWEGAKLQSGTAYLLGKPPLRWTNFDPLEFLEELKKINYQVDSWEEMLNKAEVGHGYMDRPCLNPADPDCPATAPNKNSTKPLDMALVLNGGCHGLSRKYMHWQEELIVGGTVKNSTGKLVSAHALQTMFQLMTPKQMYEHFKGYEYVSHINWNEDKAAAILEAWQRTYVEVVHQSVAQNSTQKVLSFTTTTLDDILKSFSDVSVIRVASGYLLMLAYACLTMLRWDCSKSQGAVGLAGVLLVALSVAAGLGLCSLIGISFNAATTQVLPFLALGVGVDDVFLLAHAFSETGQNKRIPFEDRTGECLKRTGASVALTSISNVTAFFMAALIPIPALRAFSLQAAVVVVFNFAMVLLIFPAILSMDLYRREDRRLDIFCCFTSPCVSRVIQVEPQAYTDTHDNTRYSPPPPYSSHSFAHETQITMQSTVQLRTEYDPHTHVYYTTAEPRSEISVQPVTVTQDTLSCQSPESTSSTRDLLSQFSDSSLHCLEPPCTKWTLSSFAEKHYAPFLLKPKAKVVVIFLFLGLLGVSLYGTTRVRDGLDLTDIVPRETREYDFIAAQFKYFSFYNMYIVTQKADYPNIQHLLYDLHRSFSNVKYVMLEENKQLPKMWLHYFRDWLQGLQDAFDSDWETGKIMPNNYKNGSDDGVLAYKLLVQTGSRDKPIDISQLTKQRLVDADGIINPSAFYIYLTAWVSNDPVAYAASQANIRPHRPEWVHDKADYMPETRLRIPAAEPIEYAQFPFYLNGLRDTSDFVEAIEKVRTICSNYTSLGLSSYPNGYPFLFWEQYIGLRHWLLLFISVVLACTFLVCAVFLLNPWTAGIIVMVLALMTVELFGMMGLIGIKLSAVPVVILIASVGIGVEFTVHVALAFLTAIGDKNRRAVLALEHMFAPVLDGAVSTLLGVLMLAGSEFDFIVRYFFAVLAILTILGVLNGLVLLPVLLSFFGPYPEVSPANGLNRLPTPSPEPPPSVVRFAMPPGHTHSGSDSSDSEYSSQTTVSGLSEELRHYEAQQGAGGPAHQVIVEATENPVFAHSTVVHPESRHHPPSNPRQQPHLDSGSLPPGRQGQQPRRDPPREGLWPPPYRPRRDAFEISTEGHSGPSNRARWGPRGARSHNPRNPASTAMGSSVPGYCQPITTVTASASVTVAVHPPPVPGPGRNPRGGLCPGYPETDHGLFEDPHVPFHVRCERRDSKVEVIELQDVECEERPRGSSSN

Variants of: B1
Conditions: with shh_human SHH
In the case of E221A;Y222A;L223A;Y224A, the “effect of a mutation on the interaction” value is reported as “disrupting interaction”. For L254A;W256A, the “effect of a mutation on the interaction” value was “decreasing interaction strength”.
